The results in this text go back to patent US20260250410A1 (SICHUAN HUIYU PHARMACEUTICAL, published 2026).

Common to all, as to test: SPR (Caterra or Biacore), antigen immobilized
On the technique in general: In SPR one partner is held on a chip, and binding of the other changes the refractive index at the surface.

For experiment [1], the target named is T1, CynoCDCP1 (Macaca fascicularis, UniProt A0A2K5VLA8 30-667).
T1 construct: extracellular domain; also called Macaca fascicularis CDCP1; monkey CDCP1; not shown: Fc or his tag
T1 sequence: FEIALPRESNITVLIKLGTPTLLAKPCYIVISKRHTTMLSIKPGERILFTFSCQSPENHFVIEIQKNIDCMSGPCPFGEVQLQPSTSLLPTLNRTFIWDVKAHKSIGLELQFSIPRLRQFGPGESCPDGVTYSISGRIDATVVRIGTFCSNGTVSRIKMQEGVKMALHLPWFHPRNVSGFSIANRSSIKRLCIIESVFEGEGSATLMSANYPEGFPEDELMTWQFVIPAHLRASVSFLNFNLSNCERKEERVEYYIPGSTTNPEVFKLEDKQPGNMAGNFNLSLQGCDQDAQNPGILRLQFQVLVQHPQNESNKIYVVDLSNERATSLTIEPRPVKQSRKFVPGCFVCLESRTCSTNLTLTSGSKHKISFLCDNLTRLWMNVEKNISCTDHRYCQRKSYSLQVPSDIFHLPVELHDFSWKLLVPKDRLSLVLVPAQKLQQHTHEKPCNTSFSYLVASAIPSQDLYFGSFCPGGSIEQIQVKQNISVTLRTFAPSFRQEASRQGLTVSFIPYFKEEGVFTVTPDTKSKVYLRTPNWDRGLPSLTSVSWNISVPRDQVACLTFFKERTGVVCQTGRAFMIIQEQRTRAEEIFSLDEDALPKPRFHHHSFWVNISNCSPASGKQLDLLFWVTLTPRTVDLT

In experiment [2] the target is T2, MsCDCP1 (mouse, UniProt Q5U462 30-666).
T2 construct: extracellular domain; also called mouse CDCP1; not shown: Fc or his tag
T2 sequence (looked up): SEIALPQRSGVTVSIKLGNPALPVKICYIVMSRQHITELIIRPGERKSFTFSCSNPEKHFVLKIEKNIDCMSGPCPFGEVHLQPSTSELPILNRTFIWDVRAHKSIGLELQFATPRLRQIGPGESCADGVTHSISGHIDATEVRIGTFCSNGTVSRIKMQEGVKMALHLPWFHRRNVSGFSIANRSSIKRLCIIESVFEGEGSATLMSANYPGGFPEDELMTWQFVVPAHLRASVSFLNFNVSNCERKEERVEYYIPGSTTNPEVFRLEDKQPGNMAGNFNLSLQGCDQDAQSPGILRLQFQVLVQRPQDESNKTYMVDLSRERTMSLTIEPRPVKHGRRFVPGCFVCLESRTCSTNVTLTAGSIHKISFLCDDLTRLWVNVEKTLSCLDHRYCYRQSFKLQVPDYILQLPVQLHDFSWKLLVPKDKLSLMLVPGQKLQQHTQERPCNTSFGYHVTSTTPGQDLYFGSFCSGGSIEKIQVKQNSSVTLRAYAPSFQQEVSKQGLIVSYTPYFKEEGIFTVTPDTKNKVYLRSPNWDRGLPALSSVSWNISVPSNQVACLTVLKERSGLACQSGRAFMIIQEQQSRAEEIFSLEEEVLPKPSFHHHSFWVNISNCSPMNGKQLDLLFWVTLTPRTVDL

Experiment [3] deals with T3, HuCDCP1-A (human, UniProt Q9H5V8 30-430).
T3 construct: range 30-430; expressed in HEK-293T, purified by Fc/his tag; also called human CDCP1-A; membrane-distal region of CDCP1; not shown: Fc or his tag
T3 sequence (looked up): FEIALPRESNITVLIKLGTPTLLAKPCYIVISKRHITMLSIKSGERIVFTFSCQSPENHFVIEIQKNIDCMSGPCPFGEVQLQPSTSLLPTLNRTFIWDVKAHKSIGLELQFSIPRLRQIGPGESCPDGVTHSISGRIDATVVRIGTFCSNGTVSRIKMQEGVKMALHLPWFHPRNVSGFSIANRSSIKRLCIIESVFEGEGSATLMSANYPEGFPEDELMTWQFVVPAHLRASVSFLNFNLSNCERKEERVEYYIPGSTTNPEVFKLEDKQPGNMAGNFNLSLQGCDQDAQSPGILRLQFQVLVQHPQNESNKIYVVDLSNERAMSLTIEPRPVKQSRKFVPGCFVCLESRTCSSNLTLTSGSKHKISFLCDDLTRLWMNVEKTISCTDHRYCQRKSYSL

The target in experiment [4] is T4, RatCDCP1 (rat, UniProt D3ZVA1 29-666).
T4 construct: extracellular domain; not shown: Fc or his tag
T4 sequence: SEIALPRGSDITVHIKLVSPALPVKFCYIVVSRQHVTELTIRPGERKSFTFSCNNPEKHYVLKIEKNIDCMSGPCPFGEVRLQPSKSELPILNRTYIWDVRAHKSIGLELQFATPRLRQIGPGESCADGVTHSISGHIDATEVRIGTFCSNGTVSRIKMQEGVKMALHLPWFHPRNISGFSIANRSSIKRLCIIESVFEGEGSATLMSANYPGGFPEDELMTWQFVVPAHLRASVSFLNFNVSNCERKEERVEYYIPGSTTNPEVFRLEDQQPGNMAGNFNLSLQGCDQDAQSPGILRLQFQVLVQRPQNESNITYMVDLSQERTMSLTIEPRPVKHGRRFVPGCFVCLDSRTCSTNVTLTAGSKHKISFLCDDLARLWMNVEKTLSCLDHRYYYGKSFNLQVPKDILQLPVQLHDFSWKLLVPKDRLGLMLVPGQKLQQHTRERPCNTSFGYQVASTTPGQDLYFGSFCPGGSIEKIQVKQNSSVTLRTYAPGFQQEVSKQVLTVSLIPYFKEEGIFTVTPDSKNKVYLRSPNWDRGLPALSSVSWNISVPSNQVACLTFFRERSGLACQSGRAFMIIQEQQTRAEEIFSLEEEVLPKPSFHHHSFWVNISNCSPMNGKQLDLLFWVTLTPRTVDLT

B1: 8E5 (antibody, V domains shown)
VH: EVQLKESGPELKKPGETVKISCKASGYTLTDFSMHWLKQAPGKGLKWMGWINTETGAPTYADDFKGRFALSLDTSANTAYLQINNLKNEDTATYFCSRGRDYDPHFDYWGQGTTVTVSS
VL: EIVLTQSPATLSVTPGDRVSLSCRASQSISDFLHWYQQRSHESPRLLIKYASQSISGIPSRFGGSGSGSDFTLNINTVEPEDVGMYYCQSAHSFPYTFGGGTKLEIK
notes: murine hybridoma mAb; also called 8ES
As to B1, the figures for the EC50 in experiment [1], in experiment [3] and in experiment [4] were 0.0516 nM, 79.3 nM and 50.5 nM, respectively. In addition, the binding result in experiment [2] is on record as “no binding (tested: 150 nM highest concentration)”.

B2: 5B8 (antibody, V domains shown)
VH: EVQLKESGGGLVQPGGSLRISCATSGLTFTHYHMSWVRQPPGKAPEWLAIIRNKAYGYTTDYSASVRGRFTISRDDSQSILYLQMNTLRAEDSATYYCVREGGYGYDGTFAYWGQGTTVTVSS
VL: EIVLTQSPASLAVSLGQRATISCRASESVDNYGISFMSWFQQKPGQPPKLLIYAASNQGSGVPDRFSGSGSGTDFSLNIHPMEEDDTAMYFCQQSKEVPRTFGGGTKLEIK
notes: murine hybridoma mAb
Turning to B2, the EC50 in experiment [1] is 0.136 nM; in experiment [4], 18 nM. For the same molecule, the binding result in experiment [2] and in experiment [3] was “no binding (tested: 150 nM highest concentration)” throughout.

B3: 8C9 (antibody, V domains shown)
VH: EVQLKESGGGLVQPGGSLRISCATSGLTFTHYHMSWVRQPPGKAPEWLAIIRNKAYGYTTDYSASVRGRFTISRDDSQSILYLQMNTLRPEDSATYYCVREGGYGYDGTFAYWGQGTTVTVSS
VL: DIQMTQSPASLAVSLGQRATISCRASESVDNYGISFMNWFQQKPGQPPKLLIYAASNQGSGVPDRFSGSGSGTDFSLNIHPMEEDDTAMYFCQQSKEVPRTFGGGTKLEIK
notes: murine hybridoma mAb
Turning to B3, the EC50 in experiment [1] turned out to be 0.564 nM; in experiment [4], 30.5 nM. Also, the binding result in experiment [2] and in experiment [3] was “no binding (tested: 150 nM highest concentration)” in each case.

B4: 12E6 (antibody, V domains shown)
VH: EVQLKESGPGILQPSQTLSLTCSFSGFSLSTSGMGVGWIRQPSGKGLEWLAHIWWDDVKLYNPALKSRLTISKETSNNQVFLKIASVDAADTATYYCARIDHGYGSNYWDFDVWGAGTTVTVSS
VL: DIVMTQAAPSVPVTPGGSVSISCRSTKSLLHSDGKTYLYWFLQRPGQSPQLLIYRMSNLASGVPDRFSGSGSGTAFTLRISRVEAEDVGVYYCMQHLEYPFTFGSGTKLEIK
notes: murine hybridoma mAb
As for B4, the EC50 in experiment [1] came to 1.45 nM; in experiment [2] it was 4010 nM; in experiment [3], 1.67 nM. The binding result in experiment [4] is reported as “no binding (tested: 150 nM highest concentration)”.

B5: 6A7 (antibody, V domains shown)
VH: EVQLKESGAELVRPGASVKVSCKASGYSFTSYWMNWVKQRPGQGLEWIGMIHPSDSETKLNQKFRDRASLTVDKSSSTAYMQLSSPTSEDSAVYYCTINYESFYYAMDYWGQGTTVTVSS
VL: DIVMTQSPASLAVSLGQRATISCRASKSVSTSGYSYMHWYQQKPGQPPKLLLYLASNLESGVPARFSGSGSGADFTLNIHPVEEEDAATYYCLHSRELPYTFGGGTKLEIK
notes: murine hybridoma mAb
As to B5, the figures for the EC50 in experiment [1], in experiment [2] and in experiment [4] were 9.96 nM, 27.5 nM and 91.4 nM, respectively. Moreover, in experiment [3], the binding result is “no binding (tested: 150 nM highest concentration)”.

B6: 3F1A11 (antibody, V domains shown)
VH: EVKLVESGPGLVKPSQSLSLTCTVTGYSITSDYAWNWIRQFPGNKLEWMGYISYNTYTSYNPSLKSRISVTRDTSKNQFFLQLKSVTIEDTATYFCAGGDYYGTGAVDYWGQGTTVTVSS
VL: EIVLTQSPLSLPVSLGDQASISCRSRQTLVHTNGNTYLDWYLQKPGQSPKLLIYKVSIRFSGVPDRFSGSRSGTDFTLKISRVEAEDLGIYYCFQGSHVPWTFGGGTKLEIK
notes: murine hybridoma mAb
Take B6: the values for the EC50 in experiment [1], in experiment [3] and in experiment [4] were 115 nM, 127 nM and 17 nM, respectively. Besides, in experiment [2], the binding result is on record as “no binding (tested: 150 nM highest concentration)”.

B7: G10F6 (antibody, V domains shown)
VH: EVKLVESGPGILQPSQTLSLTCSFSGFSLSTSGMGVSWVRQPSGKGLEWLAHIYWDDDKRYNPSLKGRLTISKDTPRNQVFLEITSVDTTDTATYYCARVPGNWDEDAMDYWGQGTTVTVSS
VL: DIQMTQSPLSLPVSLGDQASISCRSSQNIVHTNGNTYLEWYLQKVGQSPKLLIYKVSNRFSGVPDRFSGSGSGTDFTLKISRVEAEDLGVYYCFQGSHVPYTFGGGTKLEIK
notes: murine hybridoma mAb
In turn, B7 displayed an EC50 in experiment [1] of 4.47 nM. In addition, the binding result in experiment [2], in experiment [3] and in experiment [4] was “no binding (tested: 150 nM highest concentration)” throughout.

B8: 3C11 (antibody, V domains shown)
VH: EVQLQQSGTVLARPGASVKMSCKASGYNFISYWLHWIKQRPGQGLEWIGGIYPGNTDTTYNQKFKGKAKVTAVTSATTAYMELSSLTNEDSAVYYCIRYDYDRGMDYWGQGTTVTVSS
VL: DIQMTQSPSSFSVSLGDRVTITCRASEDIYYRLAWYQQKPGNAPRLLISGATALETGVPSRFSGSGSGKDYTLSITSLQTEDVATYYCQHYWNIPWTFGGGTKLEIK
notes: murine hybridoma mAb
The molecule B8 returned an EC50 in experiment [1] of 23.6 nM. Also, the binding result in experiment [2], in experiment [3] and in experiment [4] was “no binding (tested: 150 nM highest concentration)” each time.

B9: 3B12H5 (antibody, V domains shown)
VH: EVQLQQSGTVLARPGASVKMSCKASGYSFTIYWVHWVKQRPGQGLEWIGAVYPGNDDTSYNQNFKGKAKLTAVTSATTAYMELSSLTIDDSAVYYCTRHTYDEVFDYWGQGTTVTVSS
VL: DIVMTQSPSSLSVSLGDRVTITCKASEDIYYRLAWYQQKPGNAPRLLISGGTNLEAGIPSRFSGSGSGKDYTLSITSLQTEDVAIYYCQHYWNTPWTFGGGTKLEIK
notes: murine hybridoma mAb; also called 3B12HS
B9: the EC50 in experiment [1] was determined as 4.5 nM; in experiment [3] it was 52.3 nM. The binding result in experiment [2] and in experiment [4] was “no binding (tested: 150 nM highest concentration)” each time.

The EC50 is the concentration needed to bring the measured effect to its halfway point. Read a high EC50 as lower potency in that assay.
